# Target: PfLDH protein (UniProt Q27743)
# Test: -
substance,measurement,value
primary ligand hevwh,Kd,5 µM

# Reference: patent US20220380409A1
